Experiments:
[1] = molecular target: trimerization domain (TD) of human collagen XVIII, XVIII(TD) (human) (UniProt P39060); assay: AUC
[2] = molecular target: trimerization domain (TD) of human collagen XVIII, XVIII(TD) (human) (UniProt P39060); assay: cross-linking
[3] = molecular target: trimerization domain of human type XV collagen, XV(TD) (human); assay: SEC

stoichiometry N [1]	stoichiometry N [2]	stoichiometry N [3]	Substance
2.98	3		trimerization domain (TD) of human collagen XVIII, XVIII(TD) (from UniProt P39060 1442-1496) (domain or fragment)
		3	trimerization domain of human type XV collagen, XV(TD) (domain or fragment)

Source: PMC3048825
